{
  "source": "paper PMC4783868",
  "about": "(Nature, 2015)",
  "binders": {"B1": {"name": "P3 subunit of the influenza C/Johannesburg/1/1966 virus polymerase (FluPolC) (natural protein)", "chain": "MSKTFAEIAEAFLEPEAVRIAKEAVEEYGDHERKIIQIGIHFQVCCMFCDEYLSTNGSDRFVLIEGRKRGTAVSLQNELCKSYDLEPLPFLCDIFDREEKQFVEIGITRKADDSYFQSKFGKLGNSCKIFVFSYDGRLDKNCEGPMEEQKLRIFSFLATAADFLRKENMFNEIFLPDNEETIIEMKKGKTFLELRDESVPLPFQTYEQMKDYCEKFKGNPRELASKVSQMQSNIKLPIKHYEQNKFRQIRLPKGPMAPYTHKFLMEEAWMFTKISDPERSRAGEILIDFFKKGNLSAIRPKDKPLQGKYPIHYKNLWNQIKAAIADRTMVINENDHSEFLGGIGRASKKIPEISLTQDVITTEGLKQSENKLPEPRSFPRWFNAEWMWAIKDSDLTGWVPMAEYPPADNELEDYAEHLNKTMEGVLQGTNCAREMGKCILTVGALMTECRLFPGKIKVVPIYARSKERKSMQEGLPVPSEMDCLFGICVKSKSHLNKDDGMYTIITFEFSIREPNLEKHQKYTVFEAGHTTVRMKKGESVIGREVPLYLYCRTTALSKIKNDWLSKARRCFITTMDTVETICLRESAKAEENLVEKTLNEKQMWIGKKNGELIAQPLREALRVQLVQQFYFCIYNDSQLEGFCNEQKKILMALEGDKKNKSSFGFNPEGLLEKIEECLINNPMCLFMAQRLNELVIEASKRGAKFFKTD"}},
  "biological_target": "T1, PB1 subunit of the influenza C/Johannesburg/1/1966 virus polymerase (FluPolC) (influenza C/Johannesburg/1/1966 virus, UniProt Q9IMP4)",
  "T1 sequence": "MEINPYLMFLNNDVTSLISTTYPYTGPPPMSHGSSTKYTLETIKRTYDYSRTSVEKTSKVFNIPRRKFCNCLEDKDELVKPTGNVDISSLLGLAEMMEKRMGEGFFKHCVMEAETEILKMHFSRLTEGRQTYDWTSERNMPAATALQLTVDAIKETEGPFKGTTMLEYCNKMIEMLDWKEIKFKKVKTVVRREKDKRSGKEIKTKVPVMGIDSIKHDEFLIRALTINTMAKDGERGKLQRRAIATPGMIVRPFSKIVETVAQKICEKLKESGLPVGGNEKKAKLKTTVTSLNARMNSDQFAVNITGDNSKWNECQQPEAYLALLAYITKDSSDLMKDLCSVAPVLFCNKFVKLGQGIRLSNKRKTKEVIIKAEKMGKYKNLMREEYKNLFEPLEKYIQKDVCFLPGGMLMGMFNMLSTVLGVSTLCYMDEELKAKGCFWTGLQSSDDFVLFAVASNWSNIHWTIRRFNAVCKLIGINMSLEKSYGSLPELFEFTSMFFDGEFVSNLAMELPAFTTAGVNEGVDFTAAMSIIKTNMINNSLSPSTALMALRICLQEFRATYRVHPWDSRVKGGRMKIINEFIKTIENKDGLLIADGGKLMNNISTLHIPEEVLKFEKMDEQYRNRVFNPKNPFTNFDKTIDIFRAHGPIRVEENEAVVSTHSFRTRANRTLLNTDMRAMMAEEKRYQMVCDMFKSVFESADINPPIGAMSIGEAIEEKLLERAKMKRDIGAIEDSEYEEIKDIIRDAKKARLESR",
  "test": "crystal structure",
  "data": [
    {"binder": "B1", "values": [
      {"measurement": "binding result", "result": "binds"}
    ]}
  ]
}
